Results taken from patent US20130280279A1 (Hoffmann-La Roche, published 2013).

T1: digoxigenated protein Dig-BP4
T1 chain: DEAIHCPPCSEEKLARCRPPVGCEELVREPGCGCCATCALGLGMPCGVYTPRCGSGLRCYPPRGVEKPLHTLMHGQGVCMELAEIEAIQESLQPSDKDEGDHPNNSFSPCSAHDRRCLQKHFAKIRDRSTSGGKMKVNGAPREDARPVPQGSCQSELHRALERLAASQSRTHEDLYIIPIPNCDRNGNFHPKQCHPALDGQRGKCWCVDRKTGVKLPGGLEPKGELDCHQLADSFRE

B1: murine <Dig> IgG1 kappa from mouse hybridoma clone 19-11 (antibody, V domains shown)
VH: EVQLVESGGGLVKPGGSLKLSCAVSGFTFSDYAMSWIRQTPENRLEWVASINIGATYAYYPDSVKGRFTISRDNAKNTLFLQMSSLGSEDTAMYYCARPGSPYEYDKAYYSMAYWGPGTSVTVSS
VL: DVQMTQSTSSLSASLGDRVTISCRASQDIKNYLNWYQQKPGGTVKLLIYYSSTLLSGVPSRFSGRGSGTDFSLTITNLEREDIATYFCQQSITLPPTFGGGTKLEIK
notes: also called murine DIG-IgG 19-11; mu<Dig> 19-11
B2: humanized <Dig> IgG (antibody, V domains shown)
VH: QVQLVESGGGLVKPGGSLRLSCAASGFTFSDYAMSWIRQAPGKGLEWVSSINIGATYIYYADSVKGRFTISRDNAKNSLYLQMNSLRAEDTAVYYCARPGSPYEYDKAYYSMAYWGQGTTVTVSS
VL: DIQMTQSPSSLSASVGDRVTITCRASQDIKNYLNWYQQKPGKAPKLLIYYSSTLLSGVPSRFSGSGSGTDFTLTISSLQPEDFATYYCQQSITLPPTFGGGTKVEIKR
notes: also called hu<Dig> IgG; DIGHu2

Experiments:
[1] = target: T1, digoxigenated protein Dig-BP4; assay: SPR (Biacore), antibody captured by anti-mouse IgG, DIG-BP4 injected
Method: (§1) Surfaces were blocked with an injection of 1 M ethanolamine/HCl pH 8.5. […] To evaluate the functionality of the recombinant <Dig> derivatives, binding of the recombinant hu<Dig> modules, incl.
(§2) Anti-mouse IgG antibody was immobilized on the surface of a CM5 biosensor chip in the same fashion as described above. […] The samples to be analyzed were diluted in HBS-P (10 mM HEPES, pH 7.4, 150 mM NaCl, 0.005% Surfactant P20) and injected at a flow rate of 5 μl/min. The contact time (association phase) was 3 min for the antibodies at a concentration between 1 and 5 nM. […] The contact time (association phase) was 3 min, the dissociation time (washing with running buffer) 5 min for each molecule at a flow rate of 30 μl/min. All interactions were performed at 25° C. (standard temperature). […] Signals were detected at a rate of one signal per second.

[2] = target: T1, digoxigenated protein Dig-BP4; assay: SPR (Biacore), antibody captured by anti-human IgG, DIG-BP4 injected
Method: as §1, §2

| Binder | Kd [1] | Kd [2] |
| --- | --- | --- |
| B1 | 0.033 nM |  |
| B2 |  | < 0.076 nM |
